{"source": "paper PMC3962485", "origin": "cited, not measured here", "biological_target": "Hsc70 (UniProt P11142)", "sequence (P11142 2-646)": "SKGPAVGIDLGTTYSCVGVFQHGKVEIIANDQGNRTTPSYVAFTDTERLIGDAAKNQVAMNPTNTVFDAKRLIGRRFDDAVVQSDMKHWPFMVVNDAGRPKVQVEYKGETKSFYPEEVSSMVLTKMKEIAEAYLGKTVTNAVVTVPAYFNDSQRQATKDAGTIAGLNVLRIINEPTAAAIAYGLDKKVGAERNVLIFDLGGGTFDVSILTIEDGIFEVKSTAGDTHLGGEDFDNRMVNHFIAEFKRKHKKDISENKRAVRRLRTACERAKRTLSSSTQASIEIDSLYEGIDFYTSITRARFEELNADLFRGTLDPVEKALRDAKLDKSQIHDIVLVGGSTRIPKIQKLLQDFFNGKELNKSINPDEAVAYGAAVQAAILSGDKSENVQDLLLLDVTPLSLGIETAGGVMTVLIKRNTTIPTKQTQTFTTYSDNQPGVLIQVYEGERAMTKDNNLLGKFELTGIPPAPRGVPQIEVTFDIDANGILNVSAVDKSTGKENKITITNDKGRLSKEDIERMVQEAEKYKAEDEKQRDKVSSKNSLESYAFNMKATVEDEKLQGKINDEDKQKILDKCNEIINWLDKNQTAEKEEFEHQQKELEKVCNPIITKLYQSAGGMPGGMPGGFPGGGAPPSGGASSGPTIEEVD"}
{"substance": "Snl1-M (from UniProt P40548)", "values": [{"measurement": "Kd", "result": 5, "unit": "µM"}]}
